Key:
[1] = system: patients with Type 2 diabetes mellitus (T2DM); assay: HbA1c change from baseline to Week 30 (Example 2, on top of metformin); assay type: in vivo, human; details: for HbA1c change from baseline to Week 30, LS Mean (SE): MMRM
Description: For the eligibility and efficacy assessments of the study, HbA1c is measured by a certified level I “National Glycohemoglobin Standardization Program” (NGSP) central laboratory.
Randomization was stratified by values of HbA1c at visit 4 (<8%, […]) and second oral anti-diabetic (OAD) use at screening (Yes, No).
Diagnosis and criteria for inclusion: Inclusion criteria: Patients with type 2 diabetes mellitus (T2DM) diagnosed for at least 1 year before the screening visit, treated for at least 3 months prior to Visit 1 with metformin alone or metformin and a second oral anti-diabetic treatment that could be a SU, a glinide, a SGLT-2 inhibitor, or a DPP-4 inhibitor, and who were not adequately controlled with this treatment.
Efficacy analysis was based on modified intent-to-treat (mITT) population using efficacy assessments collected during the study, including those obtained after IMP discontinuation or introduction of rescue therapy. The mITT population consisted of all randomized patients who had both a baseline assessment and at least one post-baseline assessment of any primary or secondary efficacy variables.
The primary efficacy endpoint was analyzed using a mixed-effect model with repeated measures (MMRM). The MMRM model included the treatment groups, randomization strata, visit, treatment-by-visit interaction, and country as fixed-effect factors, and the baseline HbA1c-by-visit interaction as covariate.

[2] = system: patients with Type 2 diabetes mellitus (T2DM); assay: Body weight change from baseline to Week 30 (Example 2); assay type: in vivo, human
Source text: (§1) Body weight should be obtained with the patient wearing undergarments or very light clothing and no shoes, and with an empty bladder. The same scale should be used throughout the study, and calibrated on a regular basis as recommended by the manufacturer.
Similar MMRM method or ANCOVA was applied on continuous secondary efficacy endpoints and Cochran-Mantei-Haenszel method stratified by randomization strata was applied on categorical efficacy endpoints.

[3] = system: patients with Type 2 diabetes mellitus (T2DM); assay: Events adjudicated as allergic reaction by ARAC (Example 2); assay type: in vivo, human
Source text: (§2) The mission of the ARAC will be to adjudicate, in a timely manner, all allergic, or possible allergic events.
(§3) In case a patient experiences an allergic reaction or an allergic-like reaction this has to be reported as an adverse event and recorded in the e-CRF on the specific AE form for suspected allergic event. Additional information is collected on specific allergic reaction complementary form. Allergic reaction or possible allergic reaction will be adjudicated by the ARAC (Section 5.4.2).
(§4) The number (%) of patients with events adjudicated as allergic reactions by ARAC and with events adjudicated by ARAC as possibly related to the IMP will be summarized by treatment group. All the allergic events reported by the investigators on the AE form for suspected allergic event and its associated complementary forms (confirmed or not confirmed by ARAC) will be listed.

patients with T2DM [4] = assay: Patients with HbA1c ≤6.5% or <7% at Week 30 (Example 3); assay type: in vivo, human
Source text: (§5) Similar MMRM method or analysis of covariance (ANCOVA) was applied on continuous secondary efficacy endpoints and the Cochran-Mantei-Haenszel method stratified by randomization strata was applied for categorical efficacy endpoints.

patients with T2DM [5] = assay: Body weight change from baseline to Week 30 (Example 3); assay type: in vivo, human
Source text: as §1, §5

patients with T2DM [6] = system: patients with T2DM; set-up: species or system human; details: in vivo
Source text: (§6) In case the investigator or the patient recognizes any signs of local intolerability at injection site this should be recorded on the standard AE page in the e-CRF. AEs related to local intolerability at the injection site will be identified by searching the term “injection site” in either the PTs coded from the investigator reported terms or the PTs coded from the ARAC diagnosis terms. The number (%) of patients with related events will be summarized by treatment group.

[7] = system: patients with Type 2 diabetes mellitus (T2DM); set-up: species or system human; details: in vivo
Source text: as §6

patients with T2DM [8] = system: patients with T2DM; set-up: species or system human; details: in vivo; remark: listed apart in the source
Source text: as §2, §3, §4

patients with T2DM [9] = assay: Pen-related event questionnaire (Example 3); details: on-treatment period
[10] = system: patients with Type 2 diabetes mellitus (T2DM); assay: Pancreatic events adjudicated by PSAC (Example 2)
[11] = on-treatment period, Safety population

“Gly(A21)-Arg(B31)-Arg(B32)-human insulin [Insulin Glargine]” was tested, and the “HbA1c change from baseline to Week 30, LS Mean (SE)” value ([1]; mITT population) was −1.34 (0.039) %, the “HbA1c change from baseline to Week 30, LS Mean (SE)” value ([1]; mITT population, listed as insulin glargine) was −1.34% and the “HbA1c (%) Week 30 Mean (SD)” value ([1]; Week 30, mITT population) was 6.81 (0.76) %. For the same substance, the “HbA1c (%) Week 30 Median” value ([1]; Week 30, mITT population) was 6.70%, the “HbA1c (%) Week 30 Mean (SD)” value ([1]; Week 30, mITT population, listed as insulin glargine) was 6.8% and the “HbA1c (%) Baseline Mean (SD)” value ([1]; baseline, mITT population) was 8.08 (0.69) %. The “HbA1c (%) Baseline Median” value ([1]; baseline, mITT population) was 8.00%, the “LS mean body weight change from baseline to Week 30” value ([2]; Example 2) was “+1.10 kg” and the “Body weight, change from baseline to Week 30, LS Mean (SE)” value ([2]; MMRM, mITT population) was −1.11 (0.183) kg. The “Body weight, Week 30, Mean (SD)” value ([2]; mITT population) was 90.68 (16.03) kg, the “Body weight, Week 30, Median” value ([2]; mITT population) was 89.00 kg and the “Allergic reaction by ARAC: All; Anaphylactic reaction” value ([3]; in vivo) was 0 Number (%). For the same substance, the “Allergic reaction by ARAC: All; Angioedema” value ([3]; in vivo) was 0 Number (%), the “Allergic reaction by ARAC: All; Other allergic reaction; Conjunctivitis allergic” value ([3]; in vivo) was 1 (0.2%) Number (%) and the “Allergic reaction by ARAC: All; Other allergic reaction; Rhinitis allergic” value ([3]; in vivo) was 2 (0.4%) Number (%). The “Allergic reaction by ARAC: Not related to IMP; Angioedema” value ([3]; in vivo) was 0 Number (%), the “Allergic reaction by ARAC: Not related to IMP; Any category; Any event” value ([3]; in vivo) was 3 (0.6%) Number (%) and the “Allergic reaction by ARAC: Not related to IMP; Other allergic reaction; Conjunctivitis allergic” value ([3]; in vivo) was 1 (0.2%) Number (%). The “Allergic reaction by ARAC: Not related to IMP; Other allergic reaction; Rhinitis allergic” value ([3]; in vivo) was 2 (0.4%) Number (%), the “Allergic reaction by ARAC: Possibly related to IMP; Anaphylactic reaction” value ([3]; in vivo) was 0 Number (%) and the “Allergic reaction by ARAC: Possibly related to IMP; Any category; Any event” value ([3]; in vivo) was 0 Number (%). The “Allergic reactions possibly related to IMP (ARAC), number of patients” value ([3]; in vivo) was “none”, the “Patients with events adjudicated as allergic reaction by ARAC: All; Any category; Any event” value ([3]; in vivo) was 3 (0.6%) Number (%) and the “Allergic reaction by ARAC: All; Urticaria (hives); Urticaria” value [3, 11] was 1 (0.2%) Number (%). The “Allergic reaction by ARAC: Not related to IMP; Urticaria (hives); Urticaria” value [3, 11] was 1 (0.2%) Number (%), the “Allergic reaction by ARAC: Possibly related to IMP; Urticaria (hives); Urticaria” value [3, 11] was 0 Number (%) and the “Patients reaching HbA1c<7.0% at Week 30” value (patients with T2DM [4]; Example 3) was 29.6%. The “Patients reaching HbA1c≤[…] at Week 30” value (patients with T2DM [4]; Example 3) was 14.2%, the “Patients with HbA1c <7% at Week 30” value (patients with T2DM [4]; mITT population) was 108 (29.6%) Number (%) and the “Patients with HbA1c ≤[…] at Week 30” value (patients with T2DM [4]; mITT population) was 52 (14.2%) Number (%). The “Body weight, LS mean change from baseline to Week 30” value (patients with T2DM [5]; Example 3) was “+0.70 kg”, the “Body weight change from baseline to Week 30, LS Mean (SB)” value (patients with T2DM [5]; MMRM, mITT population) was 0.70 (0.178) kg and the “Body weight at Week 30, Mean (SD)” value (patients with T2DM [5]; mITT population) was 87.96 (15.08) kg. For the same substance, the “Body weight at Week 30, Median” value (patients with T2DM [5]; mITT population) was 85.90 kg, the “% of patients experiencing injection site reactions: Any injection site reactions” value (patients with T2DM [6]) was 0.5% and the “% of patients experiencing injection site reactions: Injection site hypertrophy” value (patients with T2DM [6]) was 0.3%. For the same substance, the “% of patients experiencing injection site reactions: Injection site reaction” value (patients with T2DM [6]) was 0.3%, the “% of patients experiencing injection site reactions: PTs coded from the investigator reported terms” value (patients with T2DM [6]) was 0.5% and the “Number of patients experiencing injection site reactions: Any injection site reactions” value (patients with T2DM [6]) was 2. The “Number of patients experiencing injection site reactions: Injection site hypertrophy” value (patients with T2DM [6]) was 1, the “Number of patients experiencing injection site reactions: Injection site reaction” value (patients with T2DM [6]) was 1 and the “Number of patients experiencing injection site reactions: PTs coded from the investigator reported terms” value (patients with T2DM [6]) was 2. For the same substance, the “Patients who experienced injection site reactions” value (patients with T2DM [6]) was 2 patients, the “Any injection site reactions” value [7] was 8 (1.7%) Number (%) and the Injection site bruising [7] was 4 (0.9%) Number (%). The Injection site discomfort [7] was 0 Number (%), the Injection site erythema [7] was 0 Number (%) and the Injection site haemorrhage [7] was 2 (0.4%) Number (%). For the same substance, the Injection site irritation [7] was 0 Number (%), the Injection site nodule [7] was 0 Number (%) and the Injection site pain [7] was 2 (0.4%) Number (%). The Injection site papule [7] was 0 Number (%), the Injection site rash [7] was 0 Number (%) and the “Injection site reactions, % of patients” value [7] was 1.7%. The “Injection site reactions: PTs coded from the ARAC diagnosis terms” value [7] was 0 Number (%), the “Injection site reactions: PTs coded from the investigator reported terms” value [7] was 8 (1.7%) Number (%) and the Injection site swelling [7] was 1 (0.2%) Number (%). For the same substance, the Injection site warmth [7] was 1 (0.2%) Number (%), the “% of patients with events adjudicated as allergic reaction by ARAC: Any category, Any event” value (patients with T2DM [8]) was 0.3% and the “% of patients with events adjudicated as allergic reaction by ARAC: Not Related to IMP” value (patients with T2DM [8]) was 0.3%. For the same substance, the “% of patients with events adjudicated as allergic reaction by ARAC: Other, Rhinitis allergic” value (patients with T2DM [8]) was 0.3%, the “% of patients with events adjudicated as allergic reaction by ARAC: category Other” value (patients with T2DM [8]) was 0.3% and the “Events adjudicated as allergic reaction by ARAC” value (patients with T2DM [8]) was “One”. For the same substance, the “Number of patients with events adjudicated as allergic reaction by ARAC: Any category, Any event” value (patients with T2DM [8]) was 1, the “Number of patients with events adjudicated as allergic reaction by ARAC: Not Related to IMP” value (patients with T2DM [8]) was 1 and the “Number of patients with events adjudicated as allergic reaction by ARAC: Other, Rhinitis allergic” value (patients with T2DM [8]) was 1. For the same substance, the “Number of patients with events adjudicated as allergic reaction by ARAC: category Other” value (patients with T2DM [8]) was 1, the “Patients reporting pen-related events, %” value (patients with T2DM [9]; Example 3) was 4.1% and the “Patients reporting pen-related events, number” value (patients with T2DM [9]; Example 3) was 15 patients. For the same substance, the “% of patients with events reported in pen-related event questionnaire: Any pen-related events” value (patients with T2DM [9]; Safety population) was 4.1%, the “% of patients with events reported in pen-related event questionnaire: Not associated with a clinical event” value (patients with T2DM [9]; Safety population) was 4.1% and the “Number of patients with events reported in pen-related event questionnaire: Any pen-related events” value (patients with T2DM [9]; Safety population) was 15. For the same substance, the “Number of patients with events reported in pen-related event questionnaire: Associated with a clinical event” value (patients with T2DM [9]; Safety population) was 0, the “Number of patients with events reported in pen-related event questionnaire: Not associated with a clinical event” value (patients with T2DM [9]; Safety population) was 15 and the “Cases of pancreatic cancer” value ([10]; Example 2) was “One”. The “Pancreatic events positively adjudicated by PSAC: Acute on chronic pancreatitis” value [10, 11] was 0 Number (%), the “Pancreatic events positively adjudicated by PSAC: Acute pancreatitis” value [10, 11] was 0 Number (%) and the “Pancreatic events positively adjudicated by PSAC: Chronic pancreatitis” value [10, 11] was 0 Number (%). The “Pancreatic events positively adjudicated by PSAC: Unknown pancreatitis” value [10, 11] was 0 Number (%) and the “Patients with pancreatic events positively adjudicated by PSAC: Any with “Yes” for pancreatitis by PSAC” value [10, 11] was 0 Number (%).

Source: US12186374B2 (Sanofi-Aventis Deutschland GmbH, priority 2014, dated 2025)
